Experimental data published in patent publication US7267960 (Amgen, dated 2007).

Experiments:
[1] = biological target: T1, human Necl1 expressed on transduced EL4 cells (human, UniProt Q8N126 25-398); test: flow cytometry on transduced EL4 cells
T1 construct: whole, on cells
T1 sequence (looked up): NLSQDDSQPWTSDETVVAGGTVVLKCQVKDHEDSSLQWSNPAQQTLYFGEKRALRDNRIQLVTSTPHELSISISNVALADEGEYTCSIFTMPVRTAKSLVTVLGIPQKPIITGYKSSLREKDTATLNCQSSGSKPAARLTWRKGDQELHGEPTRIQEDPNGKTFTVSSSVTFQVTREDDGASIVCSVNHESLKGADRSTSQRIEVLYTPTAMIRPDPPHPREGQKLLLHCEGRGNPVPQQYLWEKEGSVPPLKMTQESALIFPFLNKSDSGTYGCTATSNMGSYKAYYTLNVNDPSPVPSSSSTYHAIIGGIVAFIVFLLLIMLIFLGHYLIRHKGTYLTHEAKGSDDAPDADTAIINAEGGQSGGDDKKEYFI

[2] = biological target: T2, human LDCAM, full length membrane-bound, expressed on transfected or transduced cells (human, UniProt Q9BY67 39-442); test: flow cytometry on EL4 cells transduced with human LDCAM (legend of FIG. 15)
T2 construct: also called B7L-1 counter receptor; Igsf4
T2 sequence: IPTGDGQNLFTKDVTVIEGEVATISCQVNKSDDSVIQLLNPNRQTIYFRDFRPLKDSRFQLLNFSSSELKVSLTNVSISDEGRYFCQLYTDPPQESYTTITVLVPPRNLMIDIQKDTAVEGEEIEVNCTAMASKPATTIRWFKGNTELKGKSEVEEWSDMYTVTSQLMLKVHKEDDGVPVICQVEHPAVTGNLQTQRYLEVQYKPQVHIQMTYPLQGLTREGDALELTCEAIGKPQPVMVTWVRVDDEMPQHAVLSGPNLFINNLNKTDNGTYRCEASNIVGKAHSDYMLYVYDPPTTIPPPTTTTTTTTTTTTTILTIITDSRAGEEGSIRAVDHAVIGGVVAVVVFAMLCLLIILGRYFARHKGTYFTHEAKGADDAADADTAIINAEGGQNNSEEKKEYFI

B1: soluble recombinant human CRTAM-Fc (Fc fusion)
chain: SLTNHTETITVEEGQTLTLKCVTSLRKNSSLQWLTPSGFTIFLNEYPALKNSKYQLLHHSANQLSITVPNVTLQDEGVYKCLHYSDSVSTKEVKVIVLATPFKPILEASVIRKQNGEEHVVLMCSTMRSKPPPQITWLLGNSMEVSGGTLHEFETDGKKCNTTSTLIILSYGKNSTVDCIIRHRGLQGRKLVAPFRFEDLVTDEETASDALERNSLSTQDPQQPTSTVSVTEDSSTSEIDKEEKEQTTQDPDLTTEANPQYLGLARKKSG
notes: also called huCRTAM-Fc; not shown: Fc part not described
Question: What does the source list for B1?
Answer: binding result [1]: no binding; binding result [2]: binds
